Molecular target: T1, DAP12, endogenous in mouse cells (splenic cells, FL-PDC) (mouse, UniProt O54885 22-114, phosphorylated in CpG-A-stimulated FL-PDC (sites not given))
T1 construct: whole, on cells
Experiment: association in CpG-A-stimulated FL-PDC (FIG. 20); method not described

T1 sequence (O54885 22-114): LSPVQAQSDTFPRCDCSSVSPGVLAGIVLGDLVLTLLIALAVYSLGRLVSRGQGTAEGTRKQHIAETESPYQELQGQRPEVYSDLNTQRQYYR

binding result: binds
B1: membrane molecule (A) of the present invention (PDC-TREM), mouse, full length (receptor)
chain: QNPELLRTQEGETVSVTCWYDSLYHSSEKIWCKQIDNLCYPFVSKSAEKPRFLIQQSSRFNFFTVTMTKLKMSDSGIYHCGIVANNTSVYLRNIHLVVSKGSSVVSTPDIIPATRLTKLPTLITTKHSPSDTTTTRSLPQPTTVVSSPDPRVIIINGTDADRGFVSSVTIPVVCGLLSKTLVFTVLFIVTQKSFGRQAMKAHNSNS
notes: also called the present membrane molecule
